Earlier results on two substances are cited in publication PMC5321513.

Broadly, the Kd is the equilibrium constant for the complex coming apart.

For one data set, the target named is 14-3-3ζ (Homo sapiens) (UniProt P63104).
Another data set deals with 14-3-3σ (Homo sapiens) (UniProt P31947).
Sequence of 14-3-3σ (Homo sapiens) (P31947 whole entry): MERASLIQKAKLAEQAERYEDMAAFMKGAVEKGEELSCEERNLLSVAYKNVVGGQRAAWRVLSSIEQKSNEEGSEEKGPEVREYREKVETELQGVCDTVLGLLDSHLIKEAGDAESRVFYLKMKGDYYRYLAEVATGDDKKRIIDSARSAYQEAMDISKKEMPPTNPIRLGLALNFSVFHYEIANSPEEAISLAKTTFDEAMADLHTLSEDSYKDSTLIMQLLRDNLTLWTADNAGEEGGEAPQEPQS

Sequence of 14-3-3ζ (Homo sapiens) (P63104 whole entry): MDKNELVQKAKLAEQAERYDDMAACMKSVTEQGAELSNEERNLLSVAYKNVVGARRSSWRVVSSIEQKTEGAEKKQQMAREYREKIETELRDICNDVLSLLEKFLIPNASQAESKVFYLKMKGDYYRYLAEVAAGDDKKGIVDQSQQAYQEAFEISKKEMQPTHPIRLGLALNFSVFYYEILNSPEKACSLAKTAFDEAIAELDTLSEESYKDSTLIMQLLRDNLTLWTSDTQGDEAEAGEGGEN

On to “C-RAF phosphopeptide (from UniProt P04049)”, for which the dissociation constant Kd in the data set with 14-3-3ζ (Homo sapiens) is 16.7 µM.
In the case of “p53 phosphopeptide (from UniProt P04637)”, the dissociation constant (Kd) in the data set with 14-3-3σ (Homo sapiens) is 16.3 µM.
